± gives the standard deviation of the averaged measurements.
Experiments:
[1] = tested on: Saccharomyces cerevisiae; experiment: protein stability index of tFT-peptide fusion (C-terminal peptide) (PSI (0-1 scale)); higher = more stable (slower turnover)
Procedure: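 MPS profiling in S. cerevisiae of the tFT-X12 degron library: putative degron peptides plus stable controls, 12 aa, fused to the C-terminus of a sfGFP-mCherry timer. Cells are FACS-sorted into 8 mCherry/sfGFP bins and deep-sequenced. PSI runs from 0 (unstable) to 1 (stable). Backgrounds are wild type, das1Δ and doa10Δ at 30 °C, and wild type, das1Δ, cdc34-1 and cdc53-1 at 37 °C; 2-3 technical replicates each.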

[2] = tested on: Saccharomyces cerevisiae; experiment: as above; conditions: genetic background: wild type; temperature: 30 C
[3] = genetic background: cdc34-1, temperature: 37 C
[4] = genetic background: cdc53-1, temperature: 37 C
[5] = genetic background: das1 deletion, temperature: 30 C
[6] = genetic background: das1 deletion, temperature: 37 C
[7] = genetic background: doa10 deletion, temperature: 30 C
[8] = genetic background: wild type, temperature: 30 C
[9] = genetic background: wild type, temperature: 37 C
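Also: PSI is a weighted mean of sequencing reads over stability bins, variants kept only with over 10 reads, mCherry proximal and sfGFP distal, peptide attached via GGGS linker.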

Row | Sequence | protein stability index [1, 3] | protein stability index [1, 4] | protein stability index [1, 5] | protein stability index [1, 6] | protein stability index [1, 7] | protein stability index [1, 8] | protein stability index [1, 9] | protein stability index [2]
1 | RGGPPPCPLLAA | 0.68 ± 0.036 | 0.698 ± 0.032 | 0.585 ± 0.012 | 0.688 ± 0.0092 | 0.571 ± 0.035 | 0.584 ± 0.011 | 0.664 ± 0.013 | 0.51 ± 0.034
2 | RGGWVVVLGCVG | 0.634 ± 0.034 | 0.6292 ± 0.0044 | 0.482 ± 0.029 | 0.6417 ± 0.0043 | 0.468 ± 0.021 | 0.486 ± 0.018 | 0.635 ± 0.036 | 0.501 ± 0.016
3 | RGLWAAIPRKCT | 0.669 ± 0.04 | 0.74108 ± 0.00026 | 0.645 ± 0.0061 | 0.754 ± 0.016 | 0.179 ± 0.027 | 0.223 ± 0.023 | 0.548 ± 0.02 | 0.358 ± 0.028
4 | RGPSQVIVAFFV | 0.663 ± 0.027 | 0.6843 ± 0.0038 | 0.522 ± 0.026 | 0.688 ± 0.0083 | 0.3186 ± 0.0031 | 0.371 ± 0.026 | 0.5674 ± 0.0018 | 0.49 ± 0.016
5 | RGSLLRWFLAAQ | 0.628 ± 0.031 | 0.707 ± 0.012 | 0.654 ± 0.034 | 0.706 ± 0.022 | 0.289 ± 0.0095 | 0.31 ± 0.029 | 0.541 ± 0.019 | 0.443 ± 0.014
6 | RGSRLVPRLLRP | 0.686 ± 0.028 | 0.705 ± 0.012 | 0.648 ± 0.015 | 0.713 ± 0.0012 | 0.64 ± 0.02 | 0.656 ± 0.03 | 0.677 ± 0.0057 | 0.71 ± 0.024
7 | RGWWWFVVVLCR | 0.165 ± 0.0082 | 0.139 ± 0.0061 | 0.216 ± 0.033 | 0.316 ± 0.0084 | 0.2215 ± 0.00025 | 0.197 ± 0.012 | 0.2951 ± 0.0014 | 0.329 ± 0.028
8 | RHIRGLNLIKLI | 0.316 ± 0.092 | 0.672 ± 0.034 | 0.652 ± 0.025 | 0.69 ± 0.034 | 0.0672 ± 0.022 | 0.0745 ± 0.011 | 0.0777 ± 0.0067 | 0.161 ± 0.044
9 | RHQTDIVTATQK | 0.694 ± 0.05 | 0.724 ± 0.026 | 0.636 ± 0.036 | 0.717 ± 0.012 | 0.642 ± 0.062 | 0.685 ± 0.014 | 0.70375 ± 0.00022 | 0.562 ± 0.097
10 | RHVFLRIKVLNL | 0.564 ± 0.11 | 0.644 ± 0.051 | 0.52 ± 0.016 | 0.5596 ± 0.0049 | 0.344 ± 0.0053 | 0.397 ± 0.015 | 0.5197 ± 0.0025 | 0.489 ± 0.085
11 | RIFRCYSFYVVV | 0.496 ± 0.047 | 0.587 ± 0.029 | 0.393 ± 0.026 | 0.568 ± 0.024 | 0.272 ± 0.029 | 0.267 ± 0.031 | 0.4233 ± 0.0012 | 0.336 ± 0.021
12 | RILFSPSTFYLF | 0.665 ± 0.048 | 0.761 ± 0.037 | 0.705 ± 0.03 | 0.7501 ± 0.0036 | 0.214 ± 0.024 | 0.265 ± 0.031 | 0.487 ± 0.024 | 0.397 ± 0.026
13 | RIRRVMHLYTNN | 0.475 ± 0.027 | 0.705 ± 0.071 | 0.641 ± 0.027 | 0.708 ± 0.024 | 0.0717 ± 0.0049 | 0.0844 ± 0.012 | 0.109 ± 0.044 | 0.121 ± 0.0048
14 | RISYKTKINELI | 0.653 ± 0.038 | 0.735 ± 0.034 | 0.607 ± 0.034 | 0.737 ± 0.01 | 0.262 ± 0.0063 | 0.287 ± 0.052 | 0.5426 ± 0.003 | 0.434 ± 0.043
15 | RIVLRPPFNSVA | 0.619 ± 0.015 | 0.727 ± 0.017 | 0.656 ± 0.035 | 0.7428 ± 0.0017 | 0.176 ± 0.0064 | 0.217 ± 0.018 | 0.48 ± 0.0059 | 0.367 ± 0.077
16 | RKKKRNKKKMIM | 0.716 ± 0.058 | 0.734 ± 0.019 | 0.629 ± 0.019 | 0.706 ± 0.022 | 0.362 ± 0.024 | 0.342 ± 0.09 | 0.621 ± 0.0081 | 0.522 ± 0.044
17 | RLDAPGLSRTEN | 0.66 ± 0.04 | 0.68 ± 0.011 | 0.647 ± 0.044 | 0.683 ± 0.0075 | 0.66 ± 0.026 | 0.646 ± 0.078 | 0.671 ± 0.017 | 0.513 ± 0.12
18 | RLFYRLSFVYFL | 0.398 ± 0.025 | 0.4469 ± 0.0038 | 0.378 ± 0.029 | 0.514 ± 0.017 | 0.169 ± 0.0068 | 0.175 ± 0.016 | 0.243 ± 0.015 | 0.2655 ± 0.0014
19 | RLLLLLTCIIYI | 0.173 ± 0.006 | 0.219 ± 0.023 | 0.194 ± 0.016 | 0.276 ± 0.052 | 0.183 ± 0.026 | 0.16 ± 0.046 | 0.267 ± 0.032 | 0.256 ± 0.015
20 | RLPVMFWFVCSF | 0.561 ± 0.053 | 0.641 ± 0.024 | 0.477 ± 0.026 | 0.6288 ± 0.0029 | 0.47 ± 0.038 | 0.466 ± 0.026 | 0.638 ± 0.055 | 0.506 ± 0.042

Reference: the supplement of paper PMC10724198
